Test results reported in patent publication US20260092093A1 (TJ BIOPHARMA SHANGHAI, published 2026).
Residue numbers refer to the chain shown, from its start.

T1: recombinant hIL-18Rα extracellular domain (human, UniProt Q13478 22-329, biotin label (selection) or fluorescent probe (single-clone FACS), sites not given)
T1 construct: extracellular domain; also called hIL-18Rα ECD; hIL-18Rα-ECD
T1 sequence (looked up): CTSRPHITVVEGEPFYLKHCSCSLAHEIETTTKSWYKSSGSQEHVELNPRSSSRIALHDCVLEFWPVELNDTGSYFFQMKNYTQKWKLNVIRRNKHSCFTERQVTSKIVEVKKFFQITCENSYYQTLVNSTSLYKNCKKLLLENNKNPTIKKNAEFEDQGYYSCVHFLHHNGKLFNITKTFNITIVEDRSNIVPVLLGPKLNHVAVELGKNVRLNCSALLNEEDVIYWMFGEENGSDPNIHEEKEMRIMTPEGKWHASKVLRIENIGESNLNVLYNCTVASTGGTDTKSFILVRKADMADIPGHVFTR

T2: hIL-18 receptor (hIL-18Rα and hIL-18Rβ) (human, UniProt Q13478 19-541; O95256 20-599)
T2 sequence (looked up) 1: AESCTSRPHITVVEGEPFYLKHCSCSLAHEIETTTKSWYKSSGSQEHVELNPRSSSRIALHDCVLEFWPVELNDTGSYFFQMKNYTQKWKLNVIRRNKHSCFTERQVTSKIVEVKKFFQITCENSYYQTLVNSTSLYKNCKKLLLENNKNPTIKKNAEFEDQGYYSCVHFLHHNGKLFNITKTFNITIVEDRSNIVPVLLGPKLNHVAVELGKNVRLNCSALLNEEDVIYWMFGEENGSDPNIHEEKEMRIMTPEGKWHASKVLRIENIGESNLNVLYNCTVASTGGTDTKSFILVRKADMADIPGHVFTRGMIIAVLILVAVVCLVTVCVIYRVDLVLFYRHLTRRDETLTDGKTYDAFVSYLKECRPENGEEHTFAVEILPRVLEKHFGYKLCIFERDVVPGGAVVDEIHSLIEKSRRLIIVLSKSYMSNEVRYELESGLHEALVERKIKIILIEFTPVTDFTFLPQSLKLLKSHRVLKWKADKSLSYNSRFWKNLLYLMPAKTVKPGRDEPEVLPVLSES
T2 sequence (looked up) 2: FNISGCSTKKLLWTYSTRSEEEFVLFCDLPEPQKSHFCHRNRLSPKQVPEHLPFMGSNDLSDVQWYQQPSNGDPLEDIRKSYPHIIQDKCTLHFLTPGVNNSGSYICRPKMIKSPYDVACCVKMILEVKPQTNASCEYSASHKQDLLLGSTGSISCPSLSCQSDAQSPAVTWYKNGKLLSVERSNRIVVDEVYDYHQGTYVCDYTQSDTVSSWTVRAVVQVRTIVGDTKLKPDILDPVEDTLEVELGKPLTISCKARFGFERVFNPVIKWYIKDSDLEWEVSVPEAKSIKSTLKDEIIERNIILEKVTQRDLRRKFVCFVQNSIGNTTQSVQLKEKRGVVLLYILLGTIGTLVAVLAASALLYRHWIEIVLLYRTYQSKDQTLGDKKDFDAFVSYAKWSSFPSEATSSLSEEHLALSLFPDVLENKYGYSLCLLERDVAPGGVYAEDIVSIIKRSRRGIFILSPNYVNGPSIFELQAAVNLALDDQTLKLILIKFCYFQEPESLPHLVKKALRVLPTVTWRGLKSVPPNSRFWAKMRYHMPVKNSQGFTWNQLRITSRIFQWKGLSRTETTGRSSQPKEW

T3: hIL-18BP-hFc (human, UniProt O95998 31-194, limits assumed)
T3 sequence (looked up): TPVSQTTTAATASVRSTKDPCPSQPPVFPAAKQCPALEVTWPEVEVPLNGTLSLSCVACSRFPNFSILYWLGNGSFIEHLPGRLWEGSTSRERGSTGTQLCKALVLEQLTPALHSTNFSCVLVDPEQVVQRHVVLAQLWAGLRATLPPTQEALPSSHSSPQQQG

T4: hIL-18Rα ECD-Fc fusion protein (human, UniProt Q13478 22-329)
T4 construct: extracellular domain; captured on Protein A sensor
T4 sequence (looked up): T1 sequence (looked up)

B1: IL-18 variant polypeptide M35 (ligand)
chain: YFPKLRSKLSVIRNLNDQVLFIDQGNRPLFEDMTDSDCRDNAPRTIFIISMYKGSGARGMAVTISVKCEKISTLSCENKIISFKEMNPPDGIKDTKSDIIFFQRSVPGHDNKMQFESSSYEGYFLACEKERDLFKLILKKEDELGDRSIMFTVQNED
B2: IL-18 variant polypeptide M28 (ligand)
chain: B1 chain with R6A, G54W, A57G, G91V, R104Y
B3: IL-18 variant polypeptide M27 (ligand)
chain: B1 chain with G54H, G56Y, A57T, G91V, R104Y
B4: IL-18 variant polypeptide M31 (ligand)
chain: B1 chain with G54H, G56I, A57H, G91I, R104Y
B5: IL-18 variant polypeptide M38 (ligand)
chain: B1 chain with R6S, G54W, G91V, R104I
B6: IL-18 variant polypeptide M39 (ligand)
chain: B1 chain with G54W, G56P, A57G, G91V, R104L
B7: IL-18 variant polypeptide M40 (ligand)
chain: B1 chain with P3D, R6K, G54P, G56S, A57W, G91W
B8: IL-18 variant polypeptide M37 (ligand)
chain: B1 chain with R6G, G54Q, G56V, A57W, G91N
B9: IL-18 variant polypeptide M26 (ligand)
chain: B1 chain with G54H, G56D, A57K, G91V, R104Y
B10: IL-18 variant polypeptide M33 (ligand)
chain: B1 chain with P3E, R6H, G54R, G56T, A57H, G91N
B11: IL-18 variant polypeptide M29 (ligand)
chain: B1 chain with R6M, G54F, G56D, A57R, G91P
B12: IL-18 variant polypeptide M32 (ligand)
chain: B1 chain with R6G, G54S, G56S, A57R, G91N
B13: IL-18 variant polypeptide M30 (ligand)
chain: B1 chain with R6L, G54H, G56T, A57V, G91S
B14: IL-18 variant polypeptide M34 (ligand)
chain: B1 chain with G54H, G56R, A57N, G91V, R104E
B15: IL-18 variant polypeptide M25 (ligand)
chain: B1 chain with G54L, G56T, A57T, G91R
B16: IL-18 variant polypeptide M27 (ligand)
chain: B1 chain with G54H, G56Y, A57T, G91V, R104Y
B17: IL-18 variant polypeptide M39 (ligand)
chain: B1 chain with G54W, G56P, A57G, G91V, R104L
B18: IL-18 variant polypeptide M30 (ligand)
chain: B1 chain with R6L, G54H, G56T, A57V, G91S
B19: IL-18 variant polypeptide M37 (ligand)
chain: B1 chain with R6G, G54Q, G56V, A57W, G91N
B20: IL-18 variant polypeptide LM1 (ligand)
chain: B1 chain with R6K, G91N
B21: IL-18 variant polypeptide M40 (ligand)
chain: B1 chain with P3D, R6K, G54P, G56S, A57W, G91W
B22: IL-18 variant polypeptide M34 (ligand)
chain: B1 chain with G54H, G56R, A57N, G91V, R104E
B23: IL-18 variant polypeptide M38 (ligand)
chain: B1 chain with R6S, G54W, G91V, R104I
B24: IL-18 variant polypeptide M31 (ligand)
chain: B1 chain with G54H, G56I, A57H, G91I, R104Y
B25: IL-18 variant polypeptide M28 (ligand)
chain: B1 chain with R6A, G54W, A57G, G91V, R104Y

molecular target: T1, recombinant hIL-18Rα extracellular …; assay: single-clone FACS, yeast display, 10 nM labelled hIL-18Rα ECD
Outline: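 Yeast clones displaying IL-18 variants (screening rounds 4 and 5), at equal density, incubated with 10 nM fluorescently labelled hIL-18Rα ECD, then washed. Fraction of fluorescence-positive binding cells per clone measured by flow cytometry.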

Row | Binder | % of fluorescence positive cells [%]
1 | B1 | 92.9
2 | B2 | 83.4
3 | B3 | 77.7
4 | B4 | 69
5 | B5 | 79.5
6 | B6 | 76.5
7 | B7 | 39.6
8 | B8 | 95.4
9 | B9 | 96.7
10 | B10 | 0.17
11 | B11 | 0.18
12 | B12 | 4.21
13 | B13 | 0.46
14 | B14 | 87.5
15 | B15 | 1.41

molecular target: T2, hIL-18 receptor (hIL-18Rα and hIL-18Rβ); assay: cell-based or functional assay

Row | Binder | EC50 (nM), hIL-18 reporter assay [nM]
16 | B16 | 0.18
17 | B17 | 0.3
18 | B18 | 2.5
19 | B19 | 0.14
20 | B20 | 0.076
21 | B21 | 0.12
22 | B22 | 0.71
23 | B23 | 0.57
24 | B24 | 0.25
25 | B25 | 0.018

molecular target: T3, hIL-18BP-hFc; assay: cell-based or functional assay

Row | Binder | EC50 (nM) in the Presence of 1 µg/mL hIL-18BP-hFc, hIL-18 reporter assay [nM] | EC50 Fold Change (+BP/-BP), hIL-18 reporter assay [fold]
26 | B16 | 0.26 | 1.44
27 | B17 | 0.44 | 1.47
28 | B18 | 1.7 | 0.68
29 | B19 | 0.33 | 2.36
30 | B20 | 0.11 | 1.45
31 | B21 | 0.16 | 1.33
32 | B22 | 0.9 | 1.27
33 | B23 | 1.2 | 2.11
34 | B24 | 0.18 | 0.72
35 | B25 | 0.042 | 2.33

molecular target: T4, hIL-18Rα ECD-Fc fusion protein; assay: BLI (Octet RED96), hIL-18Rα ECD-Fc on Protein A sensor
Protocol: The affinities of IL-18 variant polypeptides for hIL-18Rα were assessed by Biolayer Interferometry (BLI) on Octet RED96 using Protein A sensor coated with hIL-18Rα ECD-Fc fusion protein, and WT hIL-18 was used as a control.

Row | Binder | Kd [nM] | Response (nm) | koff [s⁻¹] | kon [M⁻¹ s⁻¹]
36 | B1 | 34.1 | 0.129 | 0.0156 | 456000
37 | B2 | 30.4 | 0.178 | 0.00966 | 318000
38 | B3 | 45.9 | 0.0836 | 0.00756 | 165000
39 | B4 | 54.1 | 0.0947 | 0.0189 | 349000
40 | B5 | 120 | 0.0307 | 0.0334 | 278000
41 | B6 | 20.6 | 0.0605 | 0.0221 | 1.07e+06
42 | B7 | 32.6 | 0.161 | 0.0121 | 371000
43 | B8 | 21.8 | 0.222 | 0.00883 | 404000
44 | B9 | 57.1 | 0.0917 | 0.0119 | 207000
45 | B10 | 595 | 0.0257 | 0.0957 | 161000
46 | B11 | 83.9 | 0.0323 | 0.0612 | 730000
47 | B12 | 17.3 | 0.0381 | 0.0234 | 1.36e+06
48 | B13 | 30.2 | 0.0275 | 0.0389 | 1.29e+06
49 | B14 | 32.8 | 0.084 | 0.0166 | 505000
50 | B15 | 44.1 | 0.0798 | 0.0256 | 581000
